Patent US20250145696A1 (BIOVERATIV USA, published 2025)

Target: T1, human C1s (human, UniProt P09871 16-688)
T1 sequence: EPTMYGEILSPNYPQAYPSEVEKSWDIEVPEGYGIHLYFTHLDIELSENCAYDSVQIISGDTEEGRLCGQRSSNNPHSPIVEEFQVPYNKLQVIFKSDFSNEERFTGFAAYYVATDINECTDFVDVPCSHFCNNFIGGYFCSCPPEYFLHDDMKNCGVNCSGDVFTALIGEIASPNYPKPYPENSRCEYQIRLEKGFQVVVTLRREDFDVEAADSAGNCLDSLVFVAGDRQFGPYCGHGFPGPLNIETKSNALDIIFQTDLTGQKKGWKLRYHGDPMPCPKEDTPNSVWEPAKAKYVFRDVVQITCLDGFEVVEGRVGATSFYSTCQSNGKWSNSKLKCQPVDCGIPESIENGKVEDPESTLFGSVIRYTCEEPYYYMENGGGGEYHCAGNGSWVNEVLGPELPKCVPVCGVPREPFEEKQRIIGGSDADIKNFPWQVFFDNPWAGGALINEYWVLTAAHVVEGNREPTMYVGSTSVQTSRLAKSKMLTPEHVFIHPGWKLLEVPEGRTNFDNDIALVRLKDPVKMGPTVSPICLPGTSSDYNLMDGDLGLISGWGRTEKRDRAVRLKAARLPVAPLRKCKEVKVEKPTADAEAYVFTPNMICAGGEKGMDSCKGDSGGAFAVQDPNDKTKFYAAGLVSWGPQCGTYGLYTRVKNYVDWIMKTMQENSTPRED
Assay: cell-based or functional assay

B1: BIVV009 (antibody, human IgG4 S228P, kappa, V domains shown)
VH: EVQLVESGGGLVKPGGSLRLSCAASGFTFSNYAMSWVRQAPGKGLEWVATISSGGSHTYYLDSVKGRFTISRDNSKNTLYLQMNSLRAEDTALYYCARLFTGYAMDYWGQGTLVTVSS
VL: QIVLTQSPATLSLSPGERATMSCTASSSVSSSYLHWYQQKPGKAPKLWIYSTSNLASGVPSRFSGSGSGTDYTLTISSLQPEDFATYYCHQYYRLPPITFGQGTKLEIKR
IC50 (concentration associated to 50% of the maximum effect) on serum classical complement pathway (CP) activity, WIESLAB assay, inhibitory Emax model: 6.2 µg/mL
